Results on one substance are retold here after paper PMC5389796.

Assay [1] addresses TALK-1 T3 A277E (rs1535500)-FLAG (human) (UniProt Q96T55).
Assay [2] has as its target TALK-1 T3-FLAG (human) (UniProt Q96T55).
For assay [3] the target is unchanged. The source holds these as a separate data set.

In assay [1], “iOPN-V5 (from UniProt P10451-1 17-314) (natural protein)” returned a whole-cell K2P currents of T-REx cells with induced TALK-1 T3 A277E, increase with iOPN compared to the PKM2 control, at -60, -30, 0, 30 and 60 mV of 18.7 pA/pF. Moreover, in the assay with TALK-1 T3-FLAG (human) [2], the whole-cell K2P currents of T-REx cells with induced TALK-1 T3, increase with iOPN compared to the PKM2 control, at -60, -30, 0, 30 and 60 mV is 19.6 pA/pF. In the assay with TALK-1 T3-FLAG (human) [3], this substance registered a change of resting membrane potential (ΔVm), TALK-1 T3 with iOPN against TALK-1 T3 with PKM2, perforated patch of -7.7 mV and a resting membrane potential (Vm) of T-REx cells expressing TALK-1 T3 with iOPN, perforated patch of -80.2 mV.
